Values belong to the binder of their own block, whether it stands above or below them.
Columns and labels:
[1] = target: T1, human CD39 (full length, on cells) (human, UniProt P49961 1-510); assay: cell-based or functional assay
T1 sequence: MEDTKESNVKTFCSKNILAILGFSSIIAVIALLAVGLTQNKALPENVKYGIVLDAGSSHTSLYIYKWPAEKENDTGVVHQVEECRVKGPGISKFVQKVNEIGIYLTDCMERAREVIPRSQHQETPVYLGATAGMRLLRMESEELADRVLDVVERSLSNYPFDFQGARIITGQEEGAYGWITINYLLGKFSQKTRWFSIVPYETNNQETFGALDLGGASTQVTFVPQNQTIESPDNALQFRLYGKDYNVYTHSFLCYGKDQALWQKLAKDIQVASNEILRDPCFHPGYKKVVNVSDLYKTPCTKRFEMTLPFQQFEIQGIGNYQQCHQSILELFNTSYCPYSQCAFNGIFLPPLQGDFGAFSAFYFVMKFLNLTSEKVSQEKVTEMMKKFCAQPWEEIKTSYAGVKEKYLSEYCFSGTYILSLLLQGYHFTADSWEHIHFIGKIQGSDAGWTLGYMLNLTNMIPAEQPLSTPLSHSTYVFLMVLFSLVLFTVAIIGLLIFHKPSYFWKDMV

[2] = target: T1, human CD39 (full length, on cells); assay: FACS, SK-MEL-28 cells
Procedure: (§1) Similarly, human CD39 expressing cells SK-MEL-5, SK-MEL-28 or MOLP-8, were incubated with a gradient concentration of anti-CD39 antibodies for 30 minutes at 4° C. Cells were washed 3 times using FACS buffer and next incubated with fluorescence labelled secondary antibody (goat-anti-mouse IgG or goat anti-human IgG) for 30 minutes at 4° C. Cells were washed 3 times and then re-suspended in FACS buffer and analyzed by flow cytometry analysis on BD Celesta. Data plotted and analyzed using GraphPad Prism 8.02.
(§2) Binding affinity of the humanized antibodies hu23.H5L5 and hu14.H1L1 were tested on different cells by FACS following the similar method as described in Example 3.2.
(§3) Reference antibodies T895 and 1394 were tested in parallel as control antibodies. As shown in FIG. 12 and summarized in Table 23, both antibodies hu23.H5L5 and hu14.H1L1 bound to human and cynomolgus CD39 expressing cells in a dose-dependent manner and with similar affinity by EC₅₀ at a sub-nanomolar or nanomolar level. Neither of them recognized mouse CD39 in the FACS study. Maximum signal (mean fluorescence intensity, MFI) differed between cells for each antibody may result from their different expression level.

[3] = target: T1, human CD39 (full length, on cells); assay: FACS, MOLP-8 cells
Procedure: as §1, §2, §3

[4] = target: T1, human CD39 (full length, on cells); assay: FACS, SK-MEL-28 cells; remark: listed apart in the source
Procedure: (§4) FACS were used to determine binding of the antibodies to cell lines expressing CD39 naturally (SK-MEL-28) or recombinantly (CHOK1-hCD39, CHOK1-cynoCD39, and CHOK1-mCD39), or with cells lacking CD39 expression (CHOK1-blank) as a negative control.
as §1

[5] = target: T1, human CD39 (full length, on cells); assay: FACS competition on CHOK1-hCD39; competitor mAb23-Alexa488
Procedure: (§5) Anti-CD39 antibodies were labeled using Alex488 labeling kit and were diluted in a series of concentrations, before mixing with CHOK1-hCD39 cells to test binding EC₅₀using FACS. The non-labeled antibodies were tested for their blocking efficacy to the labelled ones. Briefly, mononuclear CHOK1-hCD39 cells were prepared to 2×10⁶/ml and plated into 96 well at 50 μl/well, then mixed with antibodies gradients to final volume at 100 μl, and then equal volume of Alex488 label antibodies were added at two folds EC80 concentration. 96 well plates were incubated at 4° C. for 1 hour, and spun down and washed 3 times with 200 μl FACS buffer. The FACS analysis was performed on FACScelesta machine and data was analyzed by Flowjo software. The blocking percentages were calculated and those having above 80% competition rate were allocated into one epitope group, compared with the non-competing well (Alex488 labeled antibody only).
(§6) Based on the competition results, the 4 anti-CD39 hybridoma antibodies (mAb14, mAb19, mAb21, mAb23) can be grouped into 4 different epitope groups, as shown in Table 11.

[6] = target: T1, human CD39 (full length, on cells); assay: FACS, CHOK1-hCD39 cells
Description: as §4
CHOK1-hCD39, CHOK1-cCD39, CHOK1-mCD39 and CHOK1-blank cells were maintained in culture medium according to ATCC procedure. Cells were collected and re-suspended in blocking buffer at a density of 3×10⁶ cells/ml. Cells were transferred to 96 well FACS plates at 100 μl/well (3×10⁵ cells/well), the plates were centrifuged and washed twice with FACS buffer (PBS, 1% FBS, 0.05% Tween-20). 4-folds serial dilution of anti-CD39 antibodies were prepared in FACS buffer starting from 30 μg/ml. Reference antibody 9-8B and mouse/human control IgG were used as positive and negative controls, respectively. Cells were re-suspended in 100 μL/well diluted antibodies, and the plates were incubated at 4° C. for 60 min. […] The plates were washed with FACS buffer, and cells were re-suspended in 100 μL/well of PBS. Cells were then analyzed with FACSVerse™ and mean fluorescence intensity were determined. Full binding curves were generated on the CD39 expressing cells by testing a range of antibody concentrations. Apparent affinity was determined for each antibody using Prism software.

[7] = target: T1, human CD39 (full length, on cells); assay: FACS competition on CHOK1-hCD39; competitor 9-8B-Alexa488
Procedure: as §5, §6

[8] = target: T1, human CD39 (full length, on cells); assay: FACS competition on CHOK1-hCD39; competitor mAb19-Alexa488
Procedure: as §5, §6

[9] = target: T1, human CD39 (full length, on cells); assay: FACS competition on CHOK1-hCD39; competitor mAb21-Alexa488
Procedure: as §5, §6

[10] = target: T1, human CD39 (full length, on cells); assay: FACS competition on CHOK1-hCD39; competitor mAb14-Alexa488
Procedure: as §5, §6

- ATPase activity inhibition IC50 on MOLP-8 cells [1]: 0.33 nM
- ATPase activity inhibition IC50 on SK-MEL-5 cells [1]: 0.07 nM
- EC50 [2]: 0.99 nM
- EC50 [3]: 0.14 nM
B1: hu23.H5L5 (antibody, V domains shown)
VH: QVQLVQSGAEVKKPGASVKVSCKASGYNLKDTFLHWVRQAPGQGLEWMGRIDPANGNIKYDPKFQGRVTITADTSANTAYMELISLRSEDTAVYYCANSPYYYGSGYRIFDVWGQGTTVTVSS
VL: QIVLTQSPATLSLSPGERATLSCSAFSSVNYMHWYQQKPGQAPRLLIYTTSNLASGIPTRFSGSGSGTSYTLTISSLEPEDFAVYYCQQRSTYPFTFGQGTKLEIK
notes: humanized c23

- ATPase activity inhibition IC50 on MOLP-8 cells [1]: 0.51 nM
- ATPase activity inhibition IC50 on SK-MEL-5 cells [1]: 0.09 nM
- EC50 [2]: 0.36 nM
- EC50 [3]: 0.11 nM
B2: Antibody T895 (antibody, V domains shown)
VH: EVQLQQSGPELVKPGASVKMSCKASGYTFTDYNMHWVKQSHGRTLEWIGYIVPLNGGSTFNQKFKGRATLTVNTSSRTAYMELRSLTSEDSAAYYCARGGTRFAYWGQGTLVTVSA
VL: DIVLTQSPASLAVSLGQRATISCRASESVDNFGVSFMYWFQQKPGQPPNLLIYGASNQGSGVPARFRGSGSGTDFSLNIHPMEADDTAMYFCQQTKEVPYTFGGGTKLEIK
notes: also called 31895

- EC50 [4]: 28 nM
- blocking percentage [5]: -26%
- EC50 [6]: 2.5 nM
- blocking percentage [7]: -11%
- blocking percentage [8]: 6%
- blocking percentage [9]: 10%
- blocking percentage [10]: 98%
B3: mAb14 (antibody, V domains shown)
VH: EVKLEESGGGLVQPGGSMKLSCVASGFTFSKYWMNWVRQSPEKGLEWVAEIRLKSNKYGTHYAESVKGRFTISRDDSKNNVYLQMNNLRPEDTGIYYCTTQLDLYWFFDVWGAGTTVTVSS
VL: DIVMTQSPAILSVTPGDRVSLSCRASQSISDYLHWYQQKSHESPRLLIKYASQSISGIPSRFSGSGSGSNFTLSINSVEPEDVGVYFCQNGHSLPLTFGAGTKLELR
notes: mouse hybridoma antibody

- EC50 [4]: 0.8 nM
- blocking percentage [5]: 100%
- EC50 [6]: 1.7 nM
- blocking percentage [7]: 98%
- blocking percentage [8]: 19%
- blocking percentage [9]: 16%
- blocking percentage [10]: 55%
B4: Antibody 9-8B (antibody, V domains shown)
VH: QIQLVQSGPELKKPGETVKISCKASGYTFTHYGMNWVKQAPGKGLKWMGWINTYTGELTYADDFKGRFAFSLETSASTAYLQINNLKNEDTATYFCARRAYYRYDYVMDYWGQGTSVTVSS
VL: DIVMTQSQKFMSTSVGDRVSVTCKASHNVGTNVAWYQQKPGQSPKALIYSASYRYSGVPGRFTGSGSGTDFTLTISNVQSEDLAEYFCHQYNNYPYTFGGGTKLEIK
